The record followed here is patent US20110151450.

Residue numbers refer to the chain shown, from its start.

Holding throughout (test): cleavage_in_vitro
For data set [1], the system named is T1, BsaWI-HF Q261A (Bacillus stearothermophilus).
T1 sequence: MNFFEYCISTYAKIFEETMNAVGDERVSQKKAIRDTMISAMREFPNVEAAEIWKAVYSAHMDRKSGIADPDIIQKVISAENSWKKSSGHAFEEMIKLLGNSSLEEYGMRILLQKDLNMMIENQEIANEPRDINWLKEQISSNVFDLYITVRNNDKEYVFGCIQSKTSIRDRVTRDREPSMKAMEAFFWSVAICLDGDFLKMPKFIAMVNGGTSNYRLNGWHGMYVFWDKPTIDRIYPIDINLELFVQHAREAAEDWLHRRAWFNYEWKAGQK
The conditions noted are these: NEB4, relative activity 100%.

For data set [2], the system named is T2, PmeI-HF E86A (Pseudomonas mendocina).
T2 sequence: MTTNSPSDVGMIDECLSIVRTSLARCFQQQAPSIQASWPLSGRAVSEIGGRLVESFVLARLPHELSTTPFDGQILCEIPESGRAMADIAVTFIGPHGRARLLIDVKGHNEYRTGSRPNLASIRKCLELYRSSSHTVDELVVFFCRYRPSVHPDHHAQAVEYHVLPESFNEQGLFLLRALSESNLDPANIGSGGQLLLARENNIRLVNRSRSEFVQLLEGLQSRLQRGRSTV
The conditions noted are these: NEB4, relative activity 100%.

Data set [3] has as its target T3, SmaI-HF F60L/S61R (Serratia marcescens) (UniProt P14229).
T3 sequence: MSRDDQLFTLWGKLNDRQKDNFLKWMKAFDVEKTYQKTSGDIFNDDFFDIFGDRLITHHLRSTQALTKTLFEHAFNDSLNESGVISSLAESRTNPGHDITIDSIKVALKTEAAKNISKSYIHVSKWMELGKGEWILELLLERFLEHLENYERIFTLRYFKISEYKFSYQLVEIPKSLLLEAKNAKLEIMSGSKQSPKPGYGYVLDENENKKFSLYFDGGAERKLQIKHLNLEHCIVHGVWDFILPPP
The conditions noted are these: NEB4, relative activity 100%.

Data set [4] relates to T4, SpeI-HF P65A (Sphaerotilus natans).
T4 sequence: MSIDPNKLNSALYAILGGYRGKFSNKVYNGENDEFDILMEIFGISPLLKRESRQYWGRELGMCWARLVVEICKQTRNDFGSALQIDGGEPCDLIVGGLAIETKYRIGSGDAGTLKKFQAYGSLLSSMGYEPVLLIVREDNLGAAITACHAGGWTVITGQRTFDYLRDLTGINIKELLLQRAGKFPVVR
The conditions noted are these: NEB4, relative activity 100%.

The target of data set [5] is T5, BglII-HF N208A (Bacillus globigii) (UniProt Q45488).
T5 sequence: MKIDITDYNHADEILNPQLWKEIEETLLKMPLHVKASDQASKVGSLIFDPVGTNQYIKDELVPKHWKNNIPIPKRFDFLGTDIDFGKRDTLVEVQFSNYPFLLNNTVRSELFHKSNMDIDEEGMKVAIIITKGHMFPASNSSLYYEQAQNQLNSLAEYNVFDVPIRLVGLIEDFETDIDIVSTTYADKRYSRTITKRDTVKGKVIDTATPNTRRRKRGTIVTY
The conditions noted are these: NEB4, relative activity 25%.

Data set [6] has as its system T6, BmtI-HF S50A (Bacillus megaterium).
T6 sequence: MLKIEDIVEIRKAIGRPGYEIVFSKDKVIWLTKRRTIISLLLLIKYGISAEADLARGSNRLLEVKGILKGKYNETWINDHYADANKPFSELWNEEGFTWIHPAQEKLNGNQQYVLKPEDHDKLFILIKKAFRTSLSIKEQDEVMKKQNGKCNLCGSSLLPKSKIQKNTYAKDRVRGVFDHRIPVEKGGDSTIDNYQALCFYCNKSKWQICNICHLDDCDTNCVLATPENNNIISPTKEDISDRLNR
The conditions noted are these: NEB4, relative activity 100%.

The subject of data set [7] is T7, SpeI-WT (Sphaerotilus natans).
T7 sequence: T4 sequence with A65P
The conditions noted are these: NEB4, relative activity 50%.

In data set [8] the test system is T8, NsiI-HF F376A (Neisseria sicca).
T8 sequence: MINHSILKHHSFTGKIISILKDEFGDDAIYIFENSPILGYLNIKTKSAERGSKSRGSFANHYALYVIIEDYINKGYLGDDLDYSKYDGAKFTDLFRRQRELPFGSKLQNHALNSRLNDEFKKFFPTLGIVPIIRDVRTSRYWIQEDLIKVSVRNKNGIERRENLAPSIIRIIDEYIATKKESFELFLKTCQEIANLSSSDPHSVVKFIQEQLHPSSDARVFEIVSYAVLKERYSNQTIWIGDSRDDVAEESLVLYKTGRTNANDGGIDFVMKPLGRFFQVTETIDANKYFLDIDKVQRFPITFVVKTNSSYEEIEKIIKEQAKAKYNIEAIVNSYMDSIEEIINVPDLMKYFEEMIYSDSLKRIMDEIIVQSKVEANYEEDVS
The conditions noted are these: NEB4, relative activity 100%.

Data set [9] has as its system T9, PvuI-WT (Proteus vulgaris).
T9 sequence: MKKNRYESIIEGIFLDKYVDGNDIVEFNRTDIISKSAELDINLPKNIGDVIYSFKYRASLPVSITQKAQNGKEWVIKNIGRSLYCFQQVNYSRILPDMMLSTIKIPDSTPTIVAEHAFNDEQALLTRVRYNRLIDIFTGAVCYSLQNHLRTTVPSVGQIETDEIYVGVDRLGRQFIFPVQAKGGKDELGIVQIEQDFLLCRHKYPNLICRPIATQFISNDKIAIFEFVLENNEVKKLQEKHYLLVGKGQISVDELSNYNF
The conditions noted are these: NEB4, relative activity 12.5%.

The subject of data set [10] is T10, BmtI-WT (Bacillus megaterium).
T10 sequence: T6 sequence with A50S
The conditions noted are these: NEB4, relative activity 100%.

For the substance pXba plasmid, the activity (fidelity index) in data set [1] was greater than 4000; in data set [2], greater than 8000; in data set [3] it was greater than 256000; in data set [4] it was greater than 8000; in data set [5], greater than 32000; in [6], greater than 1e+06. Besides, the activity (fidelity index) in data set [7] is 500; in [8], greater than 8000; in [9] it was 32; in [10] it was 16.
